Paper PMC4169746 (Molecular cell, 2014)
Residue numbers refer to the chain shown, from its start. In names and notes the source's numbering stands.

Tests used:
[1] = molecular target: dephosphorylated IRAK4^KD (human) (UniProt Q9NWZ3); test: SEC-MALS
[2] = molecular target: dephosphorylated IRAK4^FL (human) (UniProt Q9NWZ3); test: SEC-MALS
[3] = molecular target: the molecule itself; test: SEC-MALS
[4] = molecular target: the molecule itself; test: AUC

Molecule: dephosphorylated IRAK4^KD (from UniProt Q9NWZ3 186-454) (domain or fragment)
- stoichiometry N [1]: 2

Molecule: dephosphorylated IRAK4^FL (from UniProt Q9NWZ3 1-460) (enzyme)
- stoichiometry N [2]: 2

B1: IRAK4^KD-D311N (IRAK4 kinase domain, catalytically inactive, unphosphorylated) (domain or fragment, human, UniProt Q9NWZ3 164-460, looked up)
chain: RFHSFSFYELKNVTNNFDERPISVGGNKMGEGGFGVVYKGYVNNTTVAVKKLAAMVDITTEELKQQFDQEIKVMAKCQHENLVELLGFSSDGDDLCLVYVYMPNGSLLDRLSCLDGTPPLSWHMRCKIAQGAANGINFLHENHHIHRNIKSANILLDEAFTAKISDFGLARASEKFAQTVMTSRIVGTTAYMAPEALRGEITPKSDIYSFGVVLLEIITGLPAVDEHREPQLLLDIKEEIEDEEKTIEDYIDKKMNDADSTSVEAMYSVASQCLHEKKNKRPDIKKVQQLLQEMTAS
- stoichiometry N [3]: 2

B2: IRAK4^KD-D311N Y262T (domain or fragment, human, UniProt Q9NWZ3 164-460, looked up)
chain: B1 chain with Y99T
- binding result [3]: binds

B3: IRAK4^FL-D311N (full-length IRAK4, catalytically inactive, unphosphorylated) (enzyme, human, UniProt Q9NWZ3 1-460, looked up)
chain: MNKPITPSTYVRCLNVGLIRKLSDFIDPQEGWKKLAVAIKKPSGDDRYNQFHIRRFEALLQTGKSPTSELLFDWGTTNCTVGDLVDLLIQNEFFAPASLLLPDAVPKTANTLPSKEAITVQQKQMPFCDKDRTLMTPVQNLEQSYMPPDSSSPENKSLEVSDTRFHSFSFYELKNVTNNFDERPISVGGNKMGEGGFGVVYKGYVNNTTVAVKKLAAMVDITTEELKQQFDQEIKVMAKCQHENLVELLGFSSDGDDLCLVYVYMPNGSLLDRLSCLDGTPPLSWHMRCKIAQGAANGINFLHENHHIHRNIKSANILLDEAFTAKISDFGLARASEKFAQTVMTSRIVGTTAYMAPEALRGEITPKSDIYSFGVVLLEIITGLPAVDEHREPQLLLDIKEEIEDEEKTIEDYIDKKMNDADSTSVEAMYSVASQCLHEKKNKRPDIKKVQQLLQEMTAS
- Kd [4]: 2500 ± 400 nM
